Experimental data reported in patent US12258605B2, “Alkane oxidation by modified hydroxylases” (The California Institute of Technology, priority 2005, dated 2025).

Columns and labels:
Type in all cases: biochemical
[1] = Reactions on alkanes, total turnovers (Table 18): ethane; conditions: ethane (2 C atoms)
Method: (§1) Reactions on alkanes. Reactions with alkanes from pentane to decane were carried out at 3 mL-scale using 100 mM KPi pH 8.0 buffer containing 2% ethanol (to allow alkane solubilization) and purified protein. 2.5 mL KPi buffer were added with 60 μL of 90 mM alkane solution in ethanol (final conc.=1.8 mM), 150 μL enzyme solution at 1 μM (final conc.=50 nM), and 300 μL NADPH regeneration solution (100 units/mL isocitrate dehydrogenase, 70 mg/mL isocitrate, 1.5 mg/ml NADP^+). Vials were sealed and stirred for 24 hours at 4° C. 1 mL-aliquot of the reaction was removed, added with 10 μl internal standard (25 mM 1-bromohexane in ethanol), and extracted with 200 μl chloroform (30 sec vortexing, 1 min centrifugation at 10000 g). The organic phase was removed and analyzed by gas chromatography. Reactions with ethane, propane, and butane were carried out as described for longer alkanes with the only difference that alkane-saturated KPi buffer was used. Propane reactions with variants from HL5 and L9 libraries were performed on 1 mL-scale reaction using 20 nM enzyme to reduce oxygen limitation. Propane and butane reactions were analyzed by direct injection of reaction solution on the GC using 1-pentanol as internal standard. Ethane reaction products were functionalized (see below) and analyzed by GC using 1-butanol as internal standard. All measurements were performed in triplicate.
(§2) Products from alkane reactions were identified and quantified by gas chromatography using authentic standards and calibration curves with internal standards. For the reactions with alkanes from pentane to decane, GC analyses were carried out using a Shimadzu GC-17A gas chromatograph, Agilent HP5 column (30 m×0.32 mm×0.1 μm film), 1 μL injection, FID detector, and the following separation program: 250° C. inlet, 250° C. detector, 50° C. oven for 3 min, 5° C./min gradient to 100° C., 25° C./min gradient to 230° C., and 230° C. for 3 min. For butane and propane (TTN) reactions, GC analyses were carried out using a Hewlett-Packard 5890 Series II Plus gas chromatograph, Supelco SPB-1 column (60 m×0.52 mm×0.5 μm film), 0.5 μL injection, FID detector, and the following separation program: 250° C. inlet, 275° C. detector, 80° C. oven for 2 min, 10° C./min gradient to 110° C., 25° C./min gradient to 275° C., and 275° C. for 2.5 min. For ethane and propane (rate) reactions, analysis of reaction mixtures was carried out by derivatization to alkyl nitrites followed by GC-ECD analysis. For laurate, reaction product analysis was carried out by derivatization with N-methyl-N-trimethylsilylheptafluorobutyramide followed by extraction with hexane. Organic solutions were analyzed by FID-GC.
(§3) TTNs for each variant-substrate pair were determined using standardized reaction conditions (identical enzyme and substrate concentration, incubation time, cofactor regeneration system) (Table 18). TTN values were used to assess performance because TTN is a cumulative measure of both catalytic and coupling efficiency and because mutants were selected based on improvement in this property. To facilitate comparison among the variants, TTNs were normalized to the highest value in the series (MTN=Maximal Turnover Number) and plotted for the increasing-sized substrates (FIG. 38). A gradual shift of the enzyme's substrate preference during laboratory evolution is evident from these profiles. The marginal activity of wild-type BM3 on these substrates (MTN=150) is restricted to the long-chain alkanes, where it is a promiscuous function of BM3's high C12-C20 fatty acid hydroxylase activity. In the first evolutionary intermediates, substrate preference centers on medium-chain alkanes […], reflecting their selection for activity on octane. In 35E11, selected for activity on propane, preference still centers on C6-C8 alkanes but now extends towards the shorter ones, including propane. Propane activity becomes prevalent with the transition from variant ETS8 to 19A12. […]

[2] = Reactions on alkanes, total turnovers (Table 18): propane
Method: as §1, §2
Because 35E11 was only marginally stable, the engineering strategy described herein (see below) involved an initial stabilization step followed by iterative rounds of mutagenesis and screening. Random, saturation and site-directed mutagenesis methods were used to create libraries of mutants (FIG. 35), which were screened for activity on a propane surrogate, dimethyl ether. Positives were confirmed in a re-screen and purified for further analysis. Reactions with purified enzymes were carried out in sealed vials in the presence of propane-saturated buffer and a cofactor regeneration system. Improvement in propane total turnover number-moles of propanol produced per mole of enzyme—was a selection criterion for taking a mutant to the next round.
TTNs for each variant-substrate pair were determined using standardized reaction conditions (identical enzyme and substrate concentration, incubation time, cofactor regeneration system) (Table 18). TTN values were used to assess performance because TTN is a cumulative measure of both catalytic and coupling efficiency and because mutants were selected based on improvement in this property. […]

[3] = Reactions on alkanes, total turnovers (Table 18): butane
Method: as §1, §2, §3

[4] = Reactions on alkanes, total turnovers (Table 18): octane; conditions: octane (8 C atoms)
Method: as §1, §2, §3

[5] = Reactions on alkanes, total turnovers (Table 18): nonane; conditions: nonane (9 C atoms)
Method: as §1, §2, §3

[6] = Reactions on alkanes, total turnovers (Table 18): decane; conditions: decane (10 C atoms)
Method: as §1, §2, §3

[7] = TTN normalized to the highest value of the variant's series
[8] = total turnovers, standardized reaction conditions

B1: P450PMO: P450 BM-3 variant, SEQ ID NO:125; 7-7 plus G443A and D698G; propane monooxygenase (protein)
chain: TIKEMPQPKTFGELKNLPLLNTDKPVQALMKIADELGEIFKFEAPGCVTRYISSQRLIKEACDESRFDKNLSQELKFFRDFGGDGLFTSWTHEINWKKAHNILLPSFSQQAMKGYHAMMVDIAVQLVQKWERLNADEHIEVSEDMTRLTLDTIGLCGFNYRFNSFYRDQPHPFIISMVRALDEVMNKPQRANPDDPAYDENKRQCQEDIKVMNDLVDKIIADRKARGEQSDDLLTQMLNGKDPETGEPLDDGNISYQIITFLIAGHETTSGLLSFALYFLVKNPHVLQKVVEEAARVLVDPVPSYKQVKQLKYVGMVLNEALRLWPTFPAFSLYAKEDTVLGGEYPLEKGDEVMVLIPQLHRDKTVWGDDVEEFRPERFENPSAIPQHAFKPFGNGQRACIGQQFALHEATLVLGMMLKHFDFEDHTNYELDIKETLTLKPEAFVVKAKSKKIPLGGIPSPSTGQSAKKVRKKAENAHNTPLLVLYGSNMGTAEGTARDLADIAMSKGFAPQVATLDSHAGNLPREGAVLIVTASYNGHPPDNAKQFVDWLDQASADEVKGVRYSVFGCGDKNWATTYQKVPAFIDETLAAKGAENIADRGEADASDDFEGTYEEWREHMWSDVAAYFNLDIENSEDNKSTLSLQFVDSAADMPLAKMHGAFSTNVVASKELQQPGSARSTRHLEIELPKEASYQEGGHLGVIPRNYEGTVNRVTARFGLDASQQIRLEAEEEKLAHLPLAKTVSVEELLQYVELQDPVTRTQLRAMAAKTVCPPHKVELEALLEKQAYKEQVLAKRLTMLELLEKYPACEMKFSEFIALLPSIRPRYYSISSSPRVDEKQASITVSVVSGEAWSGYGEYKGIASNYLAELQEGDTITCFISTPQSEFTLPKDPETPLIMVGPGTGVAPFRGFVQARKQLKEQGQSLGEAHLYFGCRSPHEDYLYQEELENAQSEGIITLHTAFSRMPNQPKTYVQHVMEQDGKKLIELLDQGAHFYICGDGSQMAPAVEATLMKSYADVHQVSEADARLWLQQLEEKGRYAKDVWAG
modifications: Mutant P450PMO protein sequence
notes: 7-7 plus G443A and D698G; propane monooxygenase
In the case of B1, the “% rel. act.” value [1, 7] is reported as 12.4%, the TTN [1, 8] is reported as 2550 ± 250 and the “increase of total turnovers on propane” value ([2]; compared to 139-3) is reported as 100 fold. For the same molecule, the “% rel. act.” value ([2]; propane (3 C atoms), TTN normalized to the highest value of the variant's series) was 100.0%, the TTN ([2]; propane (3 C atoms), total turnovers, standardized reaction conditions) was 20500 ± 1900 and the “turnovers on propane (TTN)” value ([2]; propane-saturated buffer, cofactor regeneration system) was “more than 20,000”. For the same molecule, the “% rel. act.” value ([3]; butane (4 C atoms), TTN normalized to the highest value of the variant's series) was 30.2%, the TTN ([3]; butane (4 C atoms), total turnovers, standardized reaction conditions) was 6200 ± 400 and the “drop in activity when a single methylene unit is added to the substrate” value ([3]; relative to propane) was 90%. For the same molecule, the “% rel. act.” value [4, 7] was 9.2%, the TTN [4, 8] was 1880 ± 60 and the “% rel. act.” value [5, 7] was 11.7%. For the same molecule, the TTN [5, 8] was 2390 ± 30, the “% rel. act.” value [6, 7] was 5.3% and the TTN [6, 8] was 1080 ± 30.
